Values quoted from earlier work in article PMC7339208.

Columns and labels:
IL-2 (Homo sapiens) = IL-2 (Homo sapiens) (UniProt P60568)
IL-15 (Homo sapiens) = IL-15 (Homo sapiens) (UniProt P40933)
Sequence of UniProt P40933 (P40933 49-162): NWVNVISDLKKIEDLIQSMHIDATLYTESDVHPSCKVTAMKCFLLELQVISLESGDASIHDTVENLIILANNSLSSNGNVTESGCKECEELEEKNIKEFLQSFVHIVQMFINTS

Sequence of UniProt P60568 (P60568 21-153): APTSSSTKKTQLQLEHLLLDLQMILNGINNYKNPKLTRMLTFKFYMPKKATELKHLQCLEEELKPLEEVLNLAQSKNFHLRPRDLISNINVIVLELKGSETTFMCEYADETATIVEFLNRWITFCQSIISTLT

Kd (IL-2 (Homo sapiens)) [nM]	Kd (IL-15 (Homo sapiens)) [nM]	Substance
10		IL-2Rα (from UniProt P01589)
	0.1	IL-15Rα (from UniProt Q13261)
